PMC2706296 (Nature structural & molecular biology, 2009)
One block for each binder: values may come before it.

Key:
[1] = target: T1, Nup85 C-terminally tagged with a tandem affinity purification (TAP) tag (budding yeast (endogenous), UniProt P46673 1-744); assay: affinity purification with mass spectrometry
T1 sequence (looked up): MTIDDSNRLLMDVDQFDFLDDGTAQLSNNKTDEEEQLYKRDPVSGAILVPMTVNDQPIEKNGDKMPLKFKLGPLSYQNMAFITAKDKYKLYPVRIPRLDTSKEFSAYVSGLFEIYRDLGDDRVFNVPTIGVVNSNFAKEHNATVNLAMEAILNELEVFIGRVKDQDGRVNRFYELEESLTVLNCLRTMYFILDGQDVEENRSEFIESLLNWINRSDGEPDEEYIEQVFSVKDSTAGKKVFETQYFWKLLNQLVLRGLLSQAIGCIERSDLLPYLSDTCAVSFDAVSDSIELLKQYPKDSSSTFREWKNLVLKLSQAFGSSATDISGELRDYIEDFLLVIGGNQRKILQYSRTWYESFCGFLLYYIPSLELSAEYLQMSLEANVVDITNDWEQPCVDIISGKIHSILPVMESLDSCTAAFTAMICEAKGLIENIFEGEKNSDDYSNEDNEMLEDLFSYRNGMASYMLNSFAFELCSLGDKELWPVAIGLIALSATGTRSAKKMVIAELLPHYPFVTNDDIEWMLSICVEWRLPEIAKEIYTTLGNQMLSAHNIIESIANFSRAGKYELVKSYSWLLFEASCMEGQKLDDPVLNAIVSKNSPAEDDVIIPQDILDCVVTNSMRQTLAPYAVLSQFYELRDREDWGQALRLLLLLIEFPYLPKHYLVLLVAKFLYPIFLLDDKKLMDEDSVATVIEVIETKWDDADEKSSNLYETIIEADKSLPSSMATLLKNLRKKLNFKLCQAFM

[2] = target: Nup84 (budding yeast (endogenous), UniProt P52891 1-726); assay: negative-stain EM, random conical tilt 3D reconstruction
Chain of Nup84 (P52891 whole entry): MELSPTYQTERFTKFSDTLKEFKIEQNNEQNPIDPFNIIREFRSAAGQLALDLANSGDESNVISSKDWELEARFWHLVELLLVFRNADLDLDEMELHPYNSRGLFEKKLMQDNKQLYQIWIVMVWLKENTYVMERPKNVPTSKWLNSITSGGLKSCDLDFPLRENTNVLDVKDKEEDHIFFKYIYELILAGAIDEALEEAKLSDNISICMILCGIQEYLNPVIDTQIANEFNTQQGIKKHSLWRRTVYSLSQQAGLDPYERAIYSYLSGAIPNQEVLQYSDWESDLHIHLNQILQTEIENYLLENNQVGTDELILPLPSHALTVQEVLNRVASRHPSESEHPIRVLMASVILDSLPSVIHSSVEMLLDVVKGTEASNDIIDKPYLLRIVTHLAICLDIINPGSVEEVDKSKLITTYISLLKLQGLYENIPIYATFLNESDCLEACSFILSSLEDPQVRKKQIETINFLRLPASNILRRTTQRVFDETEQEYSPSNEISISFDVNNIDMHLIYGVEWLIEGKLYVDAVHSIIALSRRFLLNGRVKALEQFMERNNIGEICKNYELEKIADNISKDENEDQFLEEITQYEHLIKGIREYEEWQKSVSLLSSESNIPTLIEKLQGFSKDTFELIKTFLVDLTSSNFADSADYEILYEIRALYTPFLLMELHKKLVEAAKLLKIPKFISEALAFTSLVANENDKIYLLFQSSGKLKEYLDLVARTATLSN

- binding result [1]: binds
B1: Seh1 (natural protein, budding yeast (endogenous), UniProt P53011 1-349, looked up)
chain: MQPFDSGHDDLVHDVVYDFYGRHVATCSSDQHIKVFKLDKDTSNWELSDSWRAHDSSIVAIDWASPEYGRIIASASYDKTVKLWEEDPDQEECSGRRWNKLCTLNDSKGSLYSVKFAPAHLGLKLACLGNDGILRLYDALEPSDLRSWTLTSEMKVLSIPPANHLQSDFCLSWCPSRFSPEKLAVSALEQAIIYQRGKDGKLHVAAKLPGHKSLIRSISWAPSIGRWYQLIATGCKDGRIRIFKITEKLSPLASEESLTNSNMFDNSADVDMDAQGRSDSNTEEKAELQSNLQVELLSEHDDHNGEVWSVSWNLTGTILSSAGDDGKVRLWKATYSNEFKCMSVITAQQ

- binding result [2]: binds
B2: Nup145C (natural protein, budding yeast (endogenous), UniProt P49687 606-1317, looked up)
chain: SIWGLVNEEDAEIDEDDLSKQEDGGEQPLRKVRTLAQSKPSDKEVILKTDGTFGTLSGKDDSIVEEKAYEPDLSDADFEGIEASPKLDVSKDWVEQLILAGSSLRSVFATSKEFDGPCQNEIDLLFSECNDEIDNAKLIMKERRFTASYTFAKFSTGSMLLTKDIVGKSGVSIKRLPTELQRKFLFDDVYLDKEIEKVTIEARKSNPYPQISESSLLFKDALDYMEKTSSDYNLWKLSSILFDPVSYPYKTDNDQVKMALLKKERHCRLTSWIVSQIGPEIEEKIRNSSNEIEQIFLYLLLNDVVRASKLAIESKNGHLSVLISYLGSNDPRIRDLAELQLQKWSTGGCSIDKNISKIYKLLSGSPFEGLFSLKELESEFSWLCLLNLTLCYGQIDEYSLESLVQSHLDKFSLPYDDPIGVIFQLYAANENTEKLYKEVRQRTNALDVQFCWYLIQTLRFNGTRVFSKETSDEATFAFAAQLEFAQLHGHSLFVSCFLNDDKAAEDTIKRLVMREITLLRASTNDHILNRLKIPSQLIFNAQALKDRYEGNYLSEVQNLLLGSSYDLAEMAIVTSLGPRLLLSNNPVQNNELKTLREILNEFPDSERDKWSVSINVFEVYLKLVLDNVETQETIDSLISGMKIFYDQYKHCREVAACCNVMSQEIVSKILEKNNPSIGDSKAKLLELPLGQPEKAYLRGEFAQDLMKCTYKI
